# Laboratory results published in US20170130205A1, “METHOD FOR PREPARING INDUCED PLURIPOTENT STEM CELLS” (TAIPEI VETERANS GENERAL HOSPITAL, priority 2014, published 2017).
# Legend:
# Format in all cases: cell-based, human
# [1] = tested on: FD-iPSC-CMs; assay: MED64 multi-electrode field potential recording of beating iPSC-derived cardiomyocytes (Fabry); settings: post-induction day 60
# Experimental: (§1) The recording area of probes with 64 recording electrodes (MED probe; MED-P515A, Alpha Med Scientific, Osaka) for the MED64 System (Alpha Med Scientific) was coated with 2 ml of 0.1% gelatin that had been incubated at 37° C. for 1 hour. Beating iPSC-derived CMs were transferred onto the MED-probe dishes, and the electrical potentials were recorded with the MED64 multi-electrode array system. […] To evaluate the compounds, a cluster was treated with a compound in stepwise concentration increments. The medium was perfused at 1.7 ml/min at 37° C., and the field potentials were measured for 5 min.
# [2] = tested on: Ctrl-iPSC-CMs; assay: MED64 multi-electrode field potential recording of beating iPSC-derived cardiomyocytes (control); settings: post-induction day 60, isoproterenol 0, 1, 10 μM
# Experimental: as §1
# [3] = tested on: FD-iPSC-CMs; assay: ELISA of 12-HETE/15-HETE secretion into conditioned medium on Gb3 treatment, Fabry cells; settings: FD-iPSC-CMs (Pt1 to Pt8); Gb3 15 μmole/L, 24 hours
# [4] = tested on: ESC-CMs, Ctrl-iPSC-CMs; assay: Alox12/Alox15 protein expression on Gb3 treatment (Western blot, immunofluorescence), control cells; settings: post-induction day 20, Gb3 15 μmole/L, 24 hours
# Experimental: (§2) The extraction of proteins from cells and western blot analysis were performed as described previously (Yang et al., Inhibition of cancer stem cell-like properties and reduced chemoradioresistance of glioblastoma using microrna145 with cationic polyurethane-short branch pei. Biomaterials. 2012; 33:1462-1476). Whole cell lysates were separated by electrophoresis on 12% SDS-PAGE and transferred to a polyvinylidene fluoride membrane. The membranes were blocked with 5% nonfat milk at room temperature for 1 hour. The blots were incubated with primary antibodies in TBST buffer containing 3% nonfat milk at 4° C. overnight and subsequently with secondary antibodies conjugated with peroxidase at 25° C. for 1 hour. The immunoblots were developed using an enhanced chemiluminescence system, and the luminescence was visualized on X-ray film.
# (§3) The living cells and spheres were fixed in 4% paraformaldehyde, permeabilized in 0.1% Triton X-100, and blocked in 5% normal goat serum in PBS. […] The total amount of retained autofluorescent material was determined in the red (546) and green (488) channels by quantifying the pixel area (Adobe Photoshop/Image J software). The cellular area contents of the normal iPSC-CMs and the FD-iPSC-CMs were quantified using the ImageJ software package (National Institutes of Health, Bethesda, MD).
# [5] = tested on: Ctrl-iPSC-CMs or ESC-CMs; assay: ELISA of 12-HETE/15-HETE secretion into conditioned medium on Gb3 treatment, control cells; settings: Gb3 15 μmole/L, 24 hours
# [6] = tested on: FD-iPSC-CMs; assay: Alox12/Alox15 protein expression on Gb3 treatment (Western blot, immunofluorescence), Fabry cells; settings: FD-iPSC-CMs (Pt1 to Pt8), post-induction day 20; Gb3 15 μmole/L, 24 hours; vs ESC-CMs and Ctrl-iPSC-CMs
# Experimental: as §2, §3
# [7] = tested on: ESC-CMs, Ctrl-iPSC-CMs, FC-iPSC-CMs; assay: GLA enzyme activity in cardiomyocytes with administration of GLA; settings: day 20 post-induction; GLA 5 μg/ml for 5 days; all experimental cells
# Experimental: Cells were washed twice with PBS, incubated in 200 μl of fresh medium at 37° C. and 5% CO2 for 2 hours, and washed twice with PBS. Afterward, the cells were lysed in 60 μl of Lysis Buffer (27 mM of sodium citrate, 46 mM of sodium phosphate dibasic, 0.5% Triton X-100, pH 4.6). Lysates (10 μl) were added to 50 μl of Assay Buffer (Lysis Buffer without Triton X-100) containing 6 mM of 4-MUG and 117 mM of N-acetyl-D-galactosamine (GalNac, an inhibitor of -N-acetylgalactosaminidase, which is a lysosomal enzyme present in cell lysates that hydrolyzes 4-MUG) and incubated at 37° C. for 1 hour. The Stop Solution (0.4 M glycine, pH 10.8; 70 μl) was added, and the fluorescence was read on a Victor plate reader (Perkin-Elmer, Waltham, Mass.) at 355 nm excitation and 460 nm emission. A Micro BCA Protein Assay Kit (Pierce, Rockford, Ill.) was used according to the manufacturer's instructions to determine the protein concentration from 40 μl of cell lysate from each well. The total protein amount in each well was used to normalize the enzyme activity. A 4-methylumbelliferone (4-MU) standard curve ranging from 1.3 nM to 30 μM was run in parallel to calculate the absolute -Gal A activity, expressed as nmol of 4-MU released/mg protein/hour (nmol/mg protein/hour), which was normalized to the percentage of the untreated wild-type (% WT) enzyme activity. […]
# [8] = tested on: FC-iPSC-CMs; assay: Immunofluorescence of Alox12/15 and fibrotic markers in FC-iPSC-CMs under ERT; settings: read at day 60
# Experimental: (§4) The living cells and spheres were fixed in 4% paraformaldehyde, permeabilized in 0.1% Triton X-100, and blocked in 5% normal goat serum in PBS. After being washed three times with PBS, the cells were incubated with goat anti-mouse secondary antibodies conjugated with FITC (green) or PE (red). DAPI (blue) was used as the nuclear stain. Labeled cells were imaged with a laser-scanning confocal microscope (Olympus). The total amount of retained autofluorescent material was determined in the red (546) and green (488) channels by quantifying the pixel area (Adobe Photoshop/Image J software). The cellular area contents of the normal iPSC-CMs and the FD-iPSC-CMs were quantified using the ImageJ software package (National Institutes of Health, Bethesda, MD).
# (§5) However, the interrelationship between treatment onset and the efficacy of ERT drugs in FC with fibrotic progression remains unclear. Therefore, we compared the treatment efficacy of GLA between early (5 μg/ml of GLA from day 20 to day 60 post-differentiation; FIG. 13C) and late (5 μg/ml of GLA from day 40 to day 60 post-differentiation; FIG. 13D) administrations in FC-iPSC-CMs, and evaluated the levels of cardiac Alox12/15 and fibrotic markers at day 60 post-differentiation. […] We therefore tested the treatment efficacy of the pharmacological inhibition of cardiac Alox12/15 in combination with ERT (FIG. 15).
# [9] = tested on: FC-iPSC-CMs; assay: Secreted levels of LysoGb3, 12(S)-HETE and 15(S)-HETE from FC-iPSC-CMs
# Experimental: For liquid chromatography for lysoGb3 and Gb3 analysis, we used Waters Alliance 2795XE HPLC system to perform stepwise gradient elution. The flow rate was 0.3 mL/min in lysoGb3 or Gb3 experiment. Mass spectrometry of lysoGb3 and Gb3 detection was performed in positive ion mode (ES+) on a triple quadruplemass spectrometer (Quattro Ultima, Waters, Milford, Mass.) with NeoLynx software version 4.1. The analyzing methods were modified from the protocol provided by Shire Human Genetic Therapies. LC-MS/MS analysis was performed using an LTQ Orbitrap (Thermo Fisher Scientific) as described previously.
# Whole blood samples were collected into 1.8 mg/ml EDTA-K3 tubes and centrifuged at 2500×g for 20 min at room temperature to obtain the plasma samples. The aliquots were stored at −80° C. until use. Enzyme-linked immunoassays (ELISAs) were used for 15(S) HETE (Cayman Chemicals) and 12(S) HETE (Detroit R&D) quantification according to the manufacturers' instructions (Detroit R&D).
# as §5
# [10] = tested on: FC-iPSC-CMs; assay: Cell size of FC-iPSC-CMs by quantification of cTnT-positive margins; settings: early-administration: 5 μg/ml GLA day 20 to day 60
# Experimental: as §4, §5
# [11] = early-administration of GLA, day 60, vs untreated cells
# [12] = late-administration of GLA, day 60
molecule,measurement,setting,value
"CC(C)NCC(O)c1ccc(O)c(O)c1 (stereo not shown) [Isoproterenol, isoproterenol]",electrophysiological response (beating frequency) to the drug,[1],random occurrences of arrhythmias
same,effect on beating frequency of contractile colonies,[2],dose-dependent chronotropic effect
globotriaosylceramide [Gb3],secretion of 12-HETE and 15-HETE,[3],largely stimulated
same,Alox12 and Alox15 protein expression,[4],increased
same,secretion of 12-HETE/15-HETE,[5],mildly increase
same,Alox12/Alox15 protein expression,[6],upregulation of Alox12/Alox15 at higher magnitudes
"α-galactosidase A (protein, UniProt P06280 32-429, looked up, enzyme used as enzyme replacement therapy (ERT) in the FC-iPSC-CM platform) Alpha-galactosidase A: LDNGLARTPTMGWLHWERFMCNLDCQEEPDSCISEKLFMEMAELMVSEGWKDAGYEYLCIDDCWMAPQRDSEGRLQADPQRFPHGIRQLANYVHSKGLKLGIYADVGNKTCAGFPGSFGYYDIDAQTFADWGVDLLKFDGCYCDSLENLADGYKHMSLALNRTGRSIVYSCEWPLYMWPFQKPNYTEIRQYCNHWRNFADIDDSWKSIKSILDWTSFNQERIVDVAGPGGWNDPDMLVIGNFGLSWNQQVTQMALWAIMAAPLFMSNDLRHISPQAKALLQDKDVIAINQDPLGKQGYQLRQGDNFEVWERPLSGLAWAVAMINRQEIGGPRSYTIAVASLGKGVACNPACFITQLLPVKRKLGFYEWTSRLRSHINPTGTVLLQLENTMQMSLKDLL",GLA activity in cells,[7],elicited high GLA activity
same,"expression levels of Alox12/15 and fibrotic biomarkers MMP1, TGF-β and collagen1",[8]; early-administration: 5 μg/ml GLA day 20 to day 60,suppressed
same,fibrotic protein expression,[8]; late-administration: 5 μg/ml GLA day 40 to day 60,negligible inhibitory effect
same,secreted level of 12-HETE,[9]; [11],significantly suppressed
same,secreted level of 15-HETE,[9]; [11],significantly suppressed
same,secreted level of lysoGb3,[9]; [11],significantly suppressed
same,secreted level of lysoGb3,[9]; [12],significant reduction
same,secretion of 12(S)-HETE,[9]; [12],negligible inhibitory effect
same,secretion of 15(S)-HETE,[9]; [12],negligible inhibitory effect
same,cell size of FC-iPSC-CMs,[10],prominently reduced
